Laboratory results taken from publication PMC10691782 (Cellular immunology, 2022).
Each block holds one molecule with its values, some of them ahead of it.

How the values were obtained:
[1] = target: BAFF in human plasma (human (endogenous in plasma)); assay: SEC
[2] = target: Recombinant BAFF 3-mer (Flag-tagged BAFF amino acid 134-285) (human, UniProt Q9Y275-1 134-285); assay: SPR
[3] = target: Recombinant BAFF 60-mer (histidine-tagged BAFF amino acid 134-285) (human, UniProt Q9Y275-1 134-285); assay: SPR
[4] = target: BAFF 60-mer:mBaffR-Fc complex (human | murine, UniProt Q9Y275-1 134-285; Q9D8D0 1-71); assay: ELISA

Molecule: BAFF in human plasma (natural protein)
stoichiometry N [1]: 3

B1: mBaffR-Fc (murine BR3 ecto-domain fused to murine IgG1 Fc fragment) (Fc fusion, UniProt Q9D8D0 1-71, looked up)
chain: MGARRLRVRSQRSRDSSVPTQCNQTECFDPLVRNCVSCELFHTPDTGHTSSLEPGTALQPQEGSALRPDVA
binding result [2]: binds | binding result [3]: binds

Results, then the molecule that gave them:

binding result [4]: binds
Molecule: MAQQCFHSEYFDSLLHACKPCHLRCSNPPATCQPYCDPSVTSSVKGTYT (Fc fusion, UniProt O88472 1-49, looked up, not fully specified; biotin (EZ-Link Sulfo-NHS-Biotin), in the ELISA only) [Murine BCMA-Fc]

binding result [4]: binds
B2: Murine TACI-Fc (Fc fusion, UniProt Q9ET35 1-128, looked up)
chain: MAMAFCPKDQYWDSSRKSCVSCALTCSQRSQRTCTDFCKFINCRKEQGRYYDHLLGACVSCDSTCTQHPQQCAHFCEKRPRSQANLQPELGRPQAGEVEVRSDNSGRHQGSEHGPGLRLSSDQLTLYC
modifications: biotin (EZ-Link Sulfo-NHS-Biotin), in the ELISA only
